Results: US20230192789A1, “STRUCTURALLY-STABILIZED AND HDMX-SELECTIVE P53 PEPTIDES AND USES THEREOF” (Dana-Farber Cancer Institute, Inc., priority 2020, published 2023)
Entries after “also recorded” stand apart in the source; their conditions may differ. Values belong to the molecule of their own block, whether it stands above or below them. Bridges are numbered along the chain shown (N, C = ends). [ ]: non-standard residue; d: D form. The star is where a group is joined. Biotin = O=C1N[C@H]2[C@H](CS[C@H]2CCCCC(=O)*)N1; R8 = C=CCCCCCC[C@@](C)(N)C(=O)O; S5 = C=CCCC[C@](C)(N)C(=O)O

What was measured:
[1] = target: T1, recombinant HDMX (amino acids 1-490 of SEQ ID NO:104) (Homo sapiens, UniProt O15151); assay: Competitive streptavidin pull-down of biotinylated peptides with 1:1 recombinant HDM2/HDMX mixture, HDMX western; type: binding; conditions: biotinylated stapled peptide, 1:1 mixture of recombinant HDM2 and HDMX
T1 construct: thioredoxin (N, cleaved yes); S tag (N, cleaved yes); hexahistidine (N, cleaved yes); made in house; host or cells: E. coli (inferred: pET32-LIC vector, handled as described for HDM2 in BL21(DE3))
T1 sequence (O15151 1-490): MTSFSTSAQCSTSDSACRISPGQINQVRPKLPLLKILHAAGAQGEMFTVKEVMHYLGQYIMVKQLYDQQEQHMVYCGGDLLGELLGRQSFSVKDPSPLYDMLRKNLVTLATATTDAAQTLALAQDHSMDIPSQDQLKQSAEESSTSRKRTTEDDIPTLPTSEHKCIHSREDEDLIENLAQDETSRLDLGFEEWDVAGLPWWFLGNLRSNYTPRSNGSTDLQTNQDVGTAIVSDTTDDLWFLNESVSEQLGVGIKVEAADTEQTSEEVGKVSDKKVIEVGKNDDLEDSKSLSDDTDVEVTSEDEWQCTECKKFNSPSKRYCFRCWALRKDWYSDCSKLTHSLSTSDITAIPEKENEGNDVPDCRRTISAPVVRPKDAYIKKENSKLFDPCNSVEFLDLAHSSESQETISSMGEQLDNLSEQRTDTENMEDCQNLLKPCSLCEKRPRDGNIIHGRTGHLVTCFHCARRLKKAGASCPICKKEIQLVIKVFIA

[2] = target: T2, recombinant HDM2 (amino acids 17-125 of SEQ ID NO:103) (Homo sapiens, UniProt Q00987); assay: Competitive streptavidin pull-down of biotinylated peptides with 1:1 recombinant HDM2/HDMX mixture, HDM2 western; type: binding; conditions: biotinylated stapled peptide, 1:1 mixture of recombinant HDM2 and HDMX
T2 construct: hexahistidine (N); thrombin cleavage site (N); made in house; host or cells: BL21(DE3) E. coli
Description: For these studies, biotinylated peptides were incubated with a 1:1 mixture of recombinant HDM2 (amino acids 17-125 of SEQ ID NO: 103) and HDMX (amino acids 1-490 of SEQ ID NO: 104), followed by streptavidin pull-down and HDM2 and HDMX Western analyses. […] .

[3] = target: T3, recombinant HDM2 (amino acids 17-125 of SEQ ID NO:103) (human, UniProt Q00987 17-125); assay: streptavidin pull-down of biotinylated peptide with recombinant HDM2 and HDMX (1:1 mixture per paragraph 301), western blot
T3 construct: also called MDM2; not shown: thrombin cleavage site (pET28a vector)

Molecule: ATSP-7041 B26A (Biotin-LTF[R8]EYWAQA[S5]SAA-NH2; staple 4-11; SMILES CC(C)C[C@H](NC(=O)CCCC[C@@H]1SC[C@@H]2NC(=O)N[C@@H]21)C(=O)N[C@H](C(=O)N[C@@H](Cc1ccccc1)C(=O)N[C@]1(C)CCCCCCC=CCCC[C@@](C)(C(=O)N[C@@H](CO)C(=O)N[C@@H](C)C(=O)N[C@@H](C)C(N)=O)NC(=O)[C@H](C)NC(=O)[C@H](CCC(N)=O)NC(=O)[C@H](C)NC(=O)[C@H](Cc2c[nH]c3ccccc23)NC(=O)[C@H](Cc2ccc(O)cc2)NC(=O)[C@H](CCC(=O)O)NC1=O)[C@@H](C)O)
HDMX interaction [1]: engage HDMX with greatest affinity | HDMX versus HDM2 binding selectivity [1]: HDMX selectivity over HDM2; also recorded: most HDMX-specific | HDM2 interaction [2]: essentially abrogate HDM2 interaction

Molecule: ATSP-7041 B26I (Biotin-LTF[R8]EYWAQI[S5]SAA-NH2; staple 4-11; SMILES CC[C@H](C)[C@@H]1NC(=O)[C@H](CCC(N)=O)NC(=O)[C@H](C)NC(=O)[C@H](Cc2c[nH]c3ccccc23)NC(=O)[C@H](Cc2ccc(O)cc2)NC(=O)[C@H](CCC(=O)O)NC(=O)[C@](C)(NC(=O)[C@H](Cc2ccccc2)NC(=O)[C@@H](NC(=O)[C@H](CC(C)C)NC(=O)CCCC[C@@H]2SC[C@@H]3NC(=O)N[C@@H]32)[C@@H](C)O)CCCCCCC=CCCC[C@@](C)(C(=O)N[C@@H](CO)C(=O)N[C@@H](C)C(=O)N[C@@H](C)C(N)=O)NC1=O)
HDMX versus HDM2 binding selectivity [1]: dual HDM2/HDXM-targeting activity | HDMX versus HDM2 binding selectivity ([1]; listed as SEQ ID NO:63): dual-selectivity to HDMX and HDM2 | HDM2 interaction [2]: restored HDM2 binding and bind

Molecule: ATSP-7041 B26L
HDMX versus HDM2 binding selectivity [1]: dual HDM2/HDXM-targeting activity | HDMX versus HDM2 binding selectivity ([1]; listed as SEQ ID NO:65): dual-selectivity to HDMX and HDM2 | HDM2 interaction [2]: restored HDM2 binding and bind

Molecule: ATSP-7041 B26R (Biotin-LTF[R8]EYWAQR[S5]SAA-NH2; staple 4-11; SMILES CC(C)C[C@H](NC(=O)CCCC[C@@H]1SC[C@@H]2NC(=O)N[C@@H]21)C(=O)N[C@H](C(=O)N[C@@H](Cc1ccccc1)C(=O)N[C@]1(C)CCCCCCC=CCCC[C@@](C)(C(=O)N[C@@H](CO)C(=O)N[C@@H](C)C(=O)N[C@@H](C)C(N)=O)NC(=O)[C@H](CCCNC(=N)N)NC(=O)[C@H](CCC(N)=O)NC(=O)[C@H](C)NC(=O)[C@H](Cc2c[nH]c3ccccc23)NC(=O)[C@H](Cc2ccc(O)cc2)NC(=O)[C@H](CCC(=O)O)NC1=O)[C@@H](C)O)
HDMX interaction [1]: engage HDMX with greatest affinity | HDMX versus HDM2 binding selectivity [1]: HDMX selectivity over HDM2; also recorded: most HDMX-specific | HDM2 interaction [2]: essentially abrogate HDM2 interaction

binding result [3]: no binding
B1: ATSP-7041 B26W (peptide)
peptide: Biotin-LTF[R8]EYWAQW[S5]SAA-NH2
modifications: staple 4-11
SMILES: CC(C)C[C@H](NC(=O)CCCC[C@@H]1SC[C@@H]2NC(=O)N[C@@H]21)C(=O)N[C@H](C(=O)N[C@@H](Cc1ccccc1)C(=O)N[C@]1(C)CCCCCCC=CCCC[C@@](C)(C(=O)N[C@@H](CO)C(=O)N[C@@H](C)C(=O)N[C@@H](C)C(N)=O)NC(=O)[C@H](Cc2c[nH]c3ccccc23)NC(=O)[C@H](CCC(N)=O)NC(=O)[C@H](C)NC(=O)[C@H](Cc2c[nH]c3ccccc23)NC(=O)[C@H](Cc2ccc(O)cc2)NC(=O)[C@H](CCC(=O)O)NC1=O)[C@@H](C)O

binding result [3]: no binding
B2: ATSP-7041 B26Y (peptide)
peptide: Biotin-LTF[R8]EYWAQY[S5]SAA-NH2
modifications: staple 4-11
SMILES: CC(C)C[C@H](NC(=O)CCCC[C@@H]1SC[C@@H]2NC(=O)N[C@@H]21)C(=O)N[C@H](C(=O)N[C@@H](Cc1ccccc1)C(=O)N[C@]1(C)CCCCCCC=CCCC[C@@](C)(C(=O)N[C@@H](CO)C(=O)N[C@@H](C)C(=O)N[C@@H](C)C(N)=O)NC(=O)[C@H](Cc2ccc(O)cc2)NC(=O)[C@H](CCC(N)=O)NC(=O)[C@H](C)NC(=O)[C@H](Cc2c[nH]c3ccccc23)NC(=O)[C@H](Cc2ccc(O)cc2)NC(=O)[C@H](CCC(=O)O)NC1=O)[C@@H](C)O
